In PMC6338448 (Cell reports, 2018):
Read-outs that look alike come from different tables or passages of the source.

Tests used:
[1] = target: T1, C-terminally His-tagged soluble RECK (sRECK-His) (human, UniProt O95980 23-942); assay: cross-linking
T1 sequence (looked up): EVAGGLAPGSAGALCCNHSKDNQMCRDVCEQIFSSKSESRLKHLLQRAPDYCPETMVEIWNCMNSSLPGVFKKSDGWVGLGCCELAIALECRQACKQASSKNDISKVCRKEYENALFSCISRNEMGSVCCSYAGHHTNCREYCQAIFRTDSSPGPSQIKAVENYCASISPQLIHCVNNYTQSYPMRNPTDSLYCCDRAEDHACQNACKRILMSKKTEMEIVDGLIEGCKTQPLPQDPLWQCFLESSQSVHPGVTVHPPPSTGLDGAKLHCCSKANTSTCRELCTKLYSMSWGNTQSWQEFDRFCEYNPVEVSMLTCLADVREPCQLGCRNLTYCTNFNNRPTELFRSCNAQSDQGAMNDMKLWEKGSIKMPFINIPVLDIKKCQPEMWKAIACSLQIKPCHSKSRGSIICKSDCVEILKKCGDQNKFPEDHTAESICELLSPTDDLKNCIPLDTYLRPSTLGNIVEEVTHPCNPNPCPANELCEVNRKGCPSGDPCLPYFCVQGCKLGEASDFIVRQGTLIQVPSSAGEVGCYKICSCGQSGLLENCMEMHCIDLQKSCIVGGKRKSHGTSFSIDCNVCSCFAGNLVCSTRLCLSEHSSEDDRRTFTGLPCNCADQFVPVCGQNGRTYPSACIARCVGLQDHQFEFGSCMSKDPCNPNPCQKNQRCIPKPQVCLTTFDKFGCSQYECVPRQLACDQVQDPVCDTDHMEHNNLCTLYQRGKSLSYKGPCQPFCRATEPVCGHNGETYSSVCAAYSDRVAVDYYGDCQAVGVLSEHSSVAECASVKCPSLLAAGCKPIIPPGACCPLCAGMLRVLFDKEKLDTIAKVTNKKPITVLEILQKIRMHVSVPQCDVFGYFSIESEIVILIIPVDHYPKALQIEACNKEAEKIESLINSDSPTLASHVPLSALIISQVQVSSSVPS

[2] = target: T2, recombinant soluble (ΔGPI) Fc-tagged RECK (sRECK-Fc) (human, UniProt O95980 23-942); assay: pull-down
T2 sequence (looked up): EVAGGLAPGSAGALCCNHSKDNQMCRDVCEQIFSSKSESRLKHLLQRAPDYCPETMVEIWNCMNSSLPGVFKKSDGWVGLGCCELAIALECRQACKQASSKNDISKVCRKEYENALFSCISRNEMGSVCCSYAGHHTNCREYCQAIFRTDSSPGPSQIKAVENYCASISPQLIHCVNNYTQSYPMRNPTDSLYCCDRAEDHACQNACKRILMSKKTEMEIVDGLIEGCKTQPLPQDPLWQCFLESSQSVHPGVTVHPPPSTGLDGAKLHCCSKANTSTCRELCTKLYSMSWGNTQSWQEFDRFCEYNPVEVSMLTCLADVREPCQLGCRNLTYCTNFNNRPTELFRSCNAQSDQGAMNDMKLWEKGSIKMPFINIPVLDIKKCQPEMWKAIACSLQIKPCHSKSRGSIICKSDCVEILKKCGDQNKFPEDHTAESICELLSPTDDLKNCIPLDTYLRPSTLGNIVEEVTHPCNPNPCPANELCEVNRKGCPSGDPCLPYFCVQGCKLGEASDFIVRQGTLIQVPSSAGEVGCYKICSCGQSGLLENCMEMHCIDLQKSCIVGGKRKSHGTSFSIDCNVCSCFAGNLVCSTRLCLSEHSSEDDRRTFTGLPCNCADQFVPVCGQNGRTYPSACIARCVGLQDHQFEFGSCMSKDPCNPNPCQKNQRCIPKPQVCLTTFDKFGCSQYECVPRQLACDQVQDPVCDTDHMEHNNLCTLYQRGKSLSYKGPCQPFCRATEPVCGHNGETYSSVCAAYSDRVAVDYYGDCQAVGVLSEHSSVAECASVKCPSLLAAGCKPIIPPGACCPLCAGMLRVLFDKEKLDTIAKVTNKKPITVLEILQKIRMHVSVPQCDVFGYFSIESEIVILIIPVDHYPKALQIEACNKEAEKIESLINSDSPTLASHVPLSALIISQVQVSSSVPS

[3] = target: T2, recombinant soluble (ΔGPI) Fc-tagged …; assay: pull-down; remark: listed apart in the source

B1: WNT7A (co-expressed with sRECK-His in Expi293F cells) (ligand, human, UniProt O00755 32-349, looked up)
chain: LGASIICNKIPGLAPRQRAICQSRPDAIIVIGEGSQMGLDECQFQFRNGRWNCSALGERTVFGKELKVGSREAAFTYAIIAAGVAHAITAACTQGNLSDCGCDKEKQGQYHRDEGWKWGGCSADIRYGIGFAKVFVDAREIKQNARTLMNLHNNEAGRKILEENMKLECKCHGVSGSCTTKTCWTTLPQFRELGYVLKDKYNEAVHVEPVRASRNKRPTFLKIKKPLSYRKPMDTDLVYIEKSPNYCEEDPVTGSVGTQGRACNKTAPQASGCDLMCCGRGYNTHQYARVWQCNCKFHWCCYVKCNTCSERTEMYTCK
For B1, the “stoichiometry N” value [1] was 1.

B2: recombinant soluble GPR124 ECD (sGPR124), C-terminally His-tagged (domain or fragment)
chain: APGCPLSIRSCKCSGERPKGLSGGVPGPARRRVVCSGGDLPEPPEPGLLPNGTVTLLLSNNKITGLRNGSFLGLSLLEKLDLRNNIISTVQPGAFLGLGELKRLDLSNNRIGCLTSETFQGLPRLLRLNISGNIFSSLQPGVFDELPALKVVDLGTEFLTCDCHLRWLLPWAQNRSLQLSEHTLCAYPSALHAQALGSLQEAQLCCEGALELHTHHLIPSLRQVVFQGDRLPFQCSASYLGNDTRIRWYHNRAPVEGDEQAGILLAESLIHDCTFITSELTLSHIGVWASGEWECTVSMAQGNASKKVEIVVLETSASYCPAERVANNRGDFRWPRTLAGITAYQSCLQYPFTSVPLGGGAPGTRASRRCDRAGRWEPGDYSHCLYTNDITRVLYTFVLMPINASNALTLAHQLRVYTAEAASFSDMMDVVYVAQMIQKFLGYVDQIKELVEVMVDMASNLMLVDEHLLWLAQREDKACSRIVGALERIGGAALSPHAQHISVNARNVALEAYLIKPHSYVGLTCTAFQRREGGVPGTRPGSPGQNPPPEPEPPADQQLRFRCTTGRPNVSLSSFHIKNSVALASIQLPPSLFSSLPAALAPPVPPDCTLQLLVFRNGRLFHSHSNTSRPGAAGPGKRRGVATPVIFAGTSGCGVGNLTEPVAVSLRHWAEGAEPVAAWWSQEGPGEAGGWTSEGCQLRSSQPNVSALHCQHLGNVAVLMELDGGGS
B2: binds [2].

B3: sGPR124 ΔHRM (Δaa 349 - 426) (domain or fragment, human)
chain: APGCPLSIRSCKCSGERPKGLSGGVPGPARRRVVCSGGDLPEPPEPGLLPNGTVTLLLSNNKITGLRNGSFLGLSLLEKLDLRNNIISTVQPGAFLGLGELKRLDLSNNRIGCLTSETFQGLPRLLRLNISGNIFSSLQPGVFDELPALKVVDLGTEFLTCDCHLRWLLPWAQNRSLQLSEHTLCAYPSALHAQALGSLQEAQLCCEGALELHTHHLIPSLRQVVFQGDRLPFQCSASYLGNDTRIRWYHNRAPVEGDEQAGILLAESLIHDCTFITSELTLSHIGVWASGEWECTVSMAQGNASKKVEIVVLETLYTFVLMPINASNALTLAHQLRVYTAEAASFSDMMDVVYVAQMIQKFLGYVDQIKELVEVMVDMASNLMLVDEHLLWLAQREDKACSRIVGALERIGGAALSPHAQHISVNARNVALEAYLIKPHSYVGLTCTAFQRREGGVPGTRPGSPGQNPPPEPEPPADQQLRFRCTTGRPNVSLSSFHIKNSVALASIQLPPSLFSSLPAALAPPVPPDCTLQLLVFRNGRLFHSHSNTSRPGAAGPGKRRGVATPVIFAGTSGCGVGNLTEPVAVSLRHWAEGAEPVAAWWSQEGPGEAGGWTSEGCQLRSSQPNVSALHCQHLGNVAVLMELDGGGS
B3: binds [3].
